Data from patent US8124087B2, “Methods of controlling bone loss by inhibiting DKK1” (Board of Trustees of the University of Arkansas, priority 2002, dated 2012).

Columns and labels:
[1] = system: multiple myeloma plasma cells; assay: Gene expression profiling of plasma cells before and after 48 hour in vivo drug treatment; design: species or system human; details: 48 hour in vivo treatment of patients
Description: Following Ficoll-Hypaque gradient centrifugation, plasma cells obtained from the bone marrow were isolated from the mononuclear cell fraction by immunomagnetic bead selection using a monoclonal mouse anti-human CD138 antibody (Miltenyi-Biotec, Auburn, Calif.). More than 90 percent of the cells used for gene expression profiling were plasma cells, as shown by two-color flow cytometry using CD138^+/CD45^− and CD38^+/ CD45^− markers, the presence of cytoplasmic immunoglobulin light chains by immunocytochemistry, and morphology by Wright-Giemsa staining. Total RNA was isolated with RNeasy Mini Kit (Qiagen, Valencia, Calif.). Preparation of labeled cRNA and hybridization to U95Av2 microarrays containing approximately 10,000 genes (Affymetrix, Santa Clara, Calif.) was performed as previously described (Zhan et al., 2002; Zhan et al., 2003). RNA amplification was not required.
To see if multiple myeloma plasma cells also upregulate the genes in response to drugs used to treat this disease, gene expression profiling of multiple myeloma plasma cells was performed before and after 48 hour in vivo treatment with thalidomide (FIG. 33), ImiD (FIG. 34), PS-341 (FIG. 32), or dexamethasone (FIG. 35). […] In support of this notion, […] and FRZB were expressed at low to undetectable levels in 30 HMCL and several cases of extramedullary disease (FIG. 15).

C2C12 cells [2] = assay: Alkaline phosphatase (ALP) assay, BMP-2-induced differentiation; format: cell-based, mouse; details: 72 hrs
Procedure: ALP activity was measured using ALP kit (Diagnostic Chemical Limited, Exton, Pa.) according to manufacturer instructions. Absorbance The of samples was determined with a Spectra Max340 Microplate Spectrophotometer (Molecular Devices, Sunnyvale, Calif.) at 402 nm. Cell lysates were analyzed for protein content with using the micro-BCA assay kit (Pierce, Rockford, Ill.).
Chemical synthesis of siRNA specific to LRP5/6, GFP, and control siRNA were purchased from Qiagen (Valencia, Calif.). The siRNA were transiently transfected into C2C12 using Lipofectamine according to manufacturer instructions (Invitrogen). RNA was isolated after 24, 48 or 72 hours then subjected to RT-PCR or qPCR for determination of efficacy of target gene silencing.

C2C12 cells [3] = assay: OPG mRNA (qPCR) and protein (ELISA) in osteoblast cells; format: cell-based, mouse
Procedure: (§1) C2C12 cells were cultured in 6-well plates in DMEM with 10% FBS and maintained at subconfluence. MM cells (5×10^5/ml) were seeded on the C2C12 in the presence or absence of Wnt3a-CM or Cont-CM for indicated times. For coculture with primary cells, CD138 positive cells were cultured on of the C2C12 monolayer […] in the presence or absence of rWnt3a with and without anti-DKK1 antibody (R&D System) for 48 hours. Total RNA was isolated using TRIZOL reagent (Invitrogen). Supernatants were harvested for protein analysis.
(§2) Microtiter plates were coated with 50 μl of anti-DKK1 antibody (R&D Systems, Minneapolis, Minn.) according to manufacturer recommendations. Bone marrow serum (1:50) in dilution buffer was added and incubated overnight at 4° C. Plates were washed and incubated with biotinylated goat anti-human DKK1 IgG (R&D Systems, Minneapolis, Minn.) followed by streptavidin-horseradish peroxidase (Vector Laboratories), according to manufacturer recommendations. The concentrations of OPG and RANKL proteins in cultured supernatant were measured using the kits from according to manufacturer recommendations (R&D Systems, Minneapolis, Minn.).
(§3) One microgram of total RNA was reverse transcribed into total cDNA. Quantitative PCR (qPCR) was performed using an ABI Prism 7000 sequence detection system (Applied Biosystems, Foster City, Calif.). The reaction mixture contained 1 ml of cDNA, dedicated buffers with specific primers and probes (5′-labeled by 6-carboxy-fluorescein and 3′-labeled by 1-carboxy-teteramethyrhdamine), and DNA polymerase in a total 20 ml volume. […] Each cDNA sample was analyzed in triplicate in parallel with GAPDH as a control. Changes in mRNA concentration were determined by subtracting the CT (threshold cycle) of target gene from the CT of GAPDH (Δ=CT gene−CT GAPDH). The mean of Δ control was subtracted from the ΔSiLRP5/6 reaction (mean Δ control−ASiLRP5/6=e) The difference was calculated as 2^e by the ^2-ΔΔCT (Livak and Schmittgen, 2001).

C2C12 cells [4] = assay: RANKL mRNA (qPCR) in osteoblast cells; format: cell-based, mouse; details: 48 hours
Procedure: as §1, §3

MG63 cells = assay: OPG mRNA (qPCR) in osteoblast cells; format: cell-based, human; details: data not shown
Procedure: One microgram of total RNA was reverse transcribed into total cDNA. Quantitative PCR (qPCR) was performed using an ABI Prism 7000 sequence detection system (Applied Biosystems, Foster City, Calif.). The reaction mixture contained […], dedicated buffers with specific primers and probes (5′-labeled by 6-carboxy-fluorescein and 3′-labeled by 1-carboxy-teteramethyrhdamine), and DNA polymerase in a total […]. Following 2 min incubation at 50° C. and 10 min incubation at 95° C. for denaturing, the reaction was subjected to 40-cycle amplification at 95° C. for 15 s to denature and at 60° C. for 1 min for annealing/extension. Each cDNA sample was analyzed in triplicate in parallel with GAPDH as a control. Changes in mRNA concentration were determined by subtracting the CT (threshold cycle) of target gene from the CT of GAPDH (Δ=CT gene−CT GAPDH). The mean of Δ control was subtracted from the ΔSiLRP5/6 reaction (mean Δ control−ASiLRP5/6=e) The difference was calculated as 2^e by the ^2-ΔΔCT (Livak and Schmittgen, 2001).

Saos-2 cells [5] = assay: OPG mRNA (qPCR) and protein (ELISA) in osteoblast cells; format: cell-based, human
Procedure: as §2
as §3, with “Calif.).” for “Calif.). The reaction mixture contained 1 ml of cDNA, dedicated buffers with specific primers and probes (5′-labeled by 6-carboxy-fluorescein and 3′-labeled by 1-carboxy-teteramethyrhdamine), and DNA polymerase in a total 20 ml volume.”, “2001). […]” for “2001).”

hFOB 1.19 cells = assay: GST-E-cadherin binding assay / immunoblot of uncomplexed b-catenin; format: cell-based, human; details: lowest concentration tested (5 ng/ml)
Procedure: (§4) Cells were incubated in MEM, Wnt3a CM, control CM, or with recombinant Wnt3a for indicated times. For inhibition studies, cells were pretreated with purified recombinant Dkk1 at indicated concentrations or Dkk1 CM, Dkk2 CM, or bone marrow plasma with low or high concentrations of Dkk1 protein for one hour. Following treatment, cells were lysed as described (Qiang et al., 2002). Cell lysates were separated by SDS-PAGE and transferred to Immobilon polyvinylidene difluoride membranes (Millipore, Bedford, Mass.). Immunoblotting was performed using the indicated antibodies.
(§5) The GST-E-cadherin binding assay was performed as described (Bafico et al., 1998). Briefly, the beta-catenin binding site of E-cadherin as a GST-fusion protein was purified using GST beads. GST-E-cadherin was used to precipitate uncomplexed b-catenin present in 500 ng of cell lysate. Precipitated b-catenin was detected by immunoblotting using a b-catenin monoclonal antibody. Non-phosphorylated b-catenin was detected with a monoclonal antibody specific for b-catenin dephosphorylated at residues of 27-37 (Alexis, San Diego, Calif.).

C2C12 cells [6] = assay: TOPflash LEF/TCF luciferase reporter gene assay; format: cell-based; details: mouse pre-osteoblasts
Procedure: Cells plated at 5×10^4 per well in a 12-well plate were transiently co-transfected with […] of either TOPflash, FOPflash (Korinek et al., 1997), or Cbfa-1-luc (kindly provided by Dr. Ying Zhang, NCI, NIH) and 50 ng of pSV-b-galactosidase vector to normalize for transfection efficiency using Lipofectamine according to manufacturer instructions (Invitrogen). Following transfection, cells were exposed to Wnt3a CM or control CM for 24 hr prior to luciferase assay. Luciferase activity was measured as previously described (Qiang et al., 2003).

Saos-2 cells [7] = assay: GST-E-cadherin binding assay / immunoblot of uncomplexed b-catenin; format: cell-based, human
Procedure: as §4, §5
The GST-E-cadherin binding assay was performed as described (Bafico et al., 1998). […] Precipitated beta-catenin was detected by immunoblotting analysis using a b-catenin monoclonal antibody (Qiang et al., 2005).

C2C12 cells [8] = assay: Osteoblast differentiation assay (alkaline phosphatase), 5 days; format: cell-based, mouse; details: 50 ng/ml BMP-2 + 50 ng/ml recombinant human DKK1, 5 days
Procedure: C2C12 mesenchymal precursor cells (American Type Tissue Culture, Reston, Va.) were cultured in DMEM (Invitrogen, Carlsbad, Calif.) supplemented with 10 percent heat-inactivated fetal calf serum. Alkaline phosphatase activity in C2C12 cells was measured as described (Gallea, et al., 2001; Spinella-Jaegle, et al., 2001). Cell lysates were analyzed for protein content using the micro-BCA assay kit (Pierce, Rockford, Ill.).

C2C12 cells [9] = assay: GST-E-cadherin binding assay / immunoblot of uncomplexed b-catenin; format: cell-based, mouse
Procedure: Cells were incubated in MEM, Wnt3a CM, control CM, or with recombinant Wnt3a for indicated times. For inhibition studies, cells were pretreated with purified recombinant Dkk1 at indicated concentrations or Dkk1 CM, Dkk2 CM, or bone marrow plasma with low or high concentrations of Dkk1 protein for one hour. […] Cell lysates were separated by SDS-PAGE and transferred to Immobilon polyvinylidene difluoride membranes (Millipore, Bedford, Mass.). Immunoblotting was performed using the indicated antibodies.
The beta-catenin binding site of E-cadherin as a GST-fusion protein was purified using GST beads. GST-E-cadherin was used to precipitate uncomplexed beta-catenin in 500 mg of cell lysate. Precipitated beta-catenin was detected by immunoblotting analysis using a b-catenin monoclonal antibody (Qiang et al., 2005).

[10] = dose- and time-dependent, maximum reached

Molecule: CC(C)C[C@H](NC(=O)[C@H](Cc1ccccc1)NC(=O)c1cnccn1)B(O)O [PS-341]
- DKK-1 and FRZB expression after drug treatment [1]: massively upregulated in many cases

Molecule: O=C1CCC(N2C(=O)c3ccccc3C2=O)C(=O)N1 (stereo not shown) [thalidomide]
- DKK-1 and FRZB expression after drug treatment [1]: massively upregulated in many cases

B1: Wnt3a: recombinant Wnt3a (R&D Systems), canonical Wnt ligand (protein, UniProt P56704 19-352, looked up)
Protein Wnt-3a: SYPIWWSLAVGPQYSSLGSQPILCASIPGLVPKQLRFCRNYVEIMPSVAEGIKIGIQECQHQFRGRRWNCTTVHDSLAIFGPVLDKATRESAFVHAIASAGVAFAVTRSCAEGTAAICGCSSRHQGSPGKGWKWGGCSEDIEFGGMVSREFADARENRPDARSAMNRHNNEAGRQAIASHMHLKCKCHGLSGSCEVKTCWWSQPDFRAIGDFLKDKYDSASEMVVEKHRESRGWVETLRPRYTYFKVPTERDLVYYEASPNFCEPNPETGSFGTRDRTCNVSSHGIDGCDLLCCGRGHNARAERRREKCRCVFHWCCYVSCQECTRVYDVHTCK
- ALP activity, factor alone (C2C12 cells [2]; DMEM with 2% horse serum): no effect
- increase of OPG protein relative to controls (ELISA of supernatants) (C2C12 cells [3]): 2000 fold
- increase of OPG mRNA (C2C12 cells [3]; [10]): 40 fold
- RANKL mRNA after Wnt3a (C2C12 cells [4]): significant decrease in RANKL mRNA
- increase of OPG mRNA (MG63 cells): 1.5 fold
- increase of OPG protein relative to controls (ELISA of supernatants) (Saos-2 cells [5]): 4 fold
- increase of OPG mRNA (Saos-2 cells [5]; [10]): 2 fold

B2: recombinant human DKK1: recombinant Dickkopf-1 protein, soluble inhibitor of Wnt signaling (protein)
chain: TLNSVLNSNAIKNLPPPLGGAAGHPGSAVSAAPGILYPGGNKYQTIDNYQPYPCAEDEECGTDEYCASPTRGGDAGVQICLACRKRRKRCMRHAMCCPGNYCKNGICVSSDQNHFRGEIEETITESFGNDHSTLDGYSRRTTLSSKMYHTKGQEGSVCLRSSDCASGLCCARHFWSKICKPVLKEGQVCTKHRRKGSHGLEIFQRCYCGEGLSCRIQKDHHQASNSSRLHTCQRH
- inhibition of Wnt3a-increased non-phosphorylated b-catenin (hFOB 1.19 cells): pronounced inhibition
- BMP-2-induced ALP activity after Dkk1 pretreatment (C2C12 cells [2]; 100 ng/ml Dkk1, presence or absence of Wnt3a): significantly inhibited ALP activity
- Wnt3a-induced TCF/LEF transcriptional activity in presence of Dkk1 (C2C12 cells [6]): completely attenuates
- Wnt3a-induced increase in OPG mRNA in presence of DKK1 (C2C12 cells [3]; 100 ng/ml of DKK1 in culture media): significantly inhibited
- RANKL mRNA decreased by Wnt3a, after DKK1 pretreatment (C2C12 cells [4]; 100 ng/ml DKK1 pretreatment): restored
- inhibition of Wnt3a-increased non-phosphorylated b-catenin (Saos-2 cells [7]; lowest concentration tested (5 ng/ml)): pronounced inhibition
- b-catenin level (pull-down assay) (Saos-2 cells [7]; recombinant DKK1 before Wnt3a): reduced
- alkaline phosphatase production with BMP-2 plus DKK1 (C2C12 cells [8]): not produced
- concentration of maximal inhibition of Wnt3a-increased non-phosphorylated b-catenin (C2C12 cells [9]; pretreatment before Wnt3a): 50 ng/mL
- b-catenin level (pull-down assay) (C2C12 cells [9]; recombinant DKK1 before Wnt3a): reduced
